The record followed here is paper PMC9174178 (Cell Reports, 2022).

B1: psNb 2-38 (VHH)
VHH: QVQLVESGGGLVQAGGSLRLSCAAAARFSTSAMGWFRQAPGKEREFVAAISWSNTNTHYADTVKGRFTISADTAKETVDLQMNSLKPEDTAVYYCVQGGWGIRQPIIVDYWGKGTQVTVSS
B2: psNb 1-22 (VHH)
VHH: HVQLVESGGGLVQPGGSLRLSCAASGRSFNSYLMGWFRQAPGKEREFVAWISGSPHDIIRYRDSVKDRFTISRDNAKNTVYLQMNSLKPVDTAVYYCAVGSLRVGSFSPDYWGQGTQVTVSS
B3: psNb 2-57 (VHH)
VHH: QVQLVESGGGLVQAGGSLRLSCAVSGRTISTFGMGWFRQAPGKEREFVATITRDEDMLLYADSVKGRFTISRDTAKNMVFLQMNSLKIEDTALYYCAVRRDSSWGYSRQSTEYDYWGQGTQVTVSS
B4: psNb 2-45 (VHH)
VHH: QVQLVESGGGLVQAGGSLRLSCTASGYDFSILAIAWYRQAPGKERELVAAISRVGSTDYADSVKGRFTISRDNTKNTVSLQMDSLKPEDTAVYYCNAGIPMTTVLSGLGFWGQGTQVTVSS
B5: psNb 2-34 (VHH)
VHH: HVQLVESGGGLVQAGGSLRLSCAASGRTFSRYAAGWFRQAPGKEREFVAVIEWDGDSAYYADPVKGRFTISRDNAKNTVYLQMNRLKPEDTAVYICAVGGNHYSRSKYYNLDEYDDWGQGTQVTVSS
B6: psNb 2-67 (VHH)
VHH: EVQLVESGGGLVQTGGSLRLSCALSGYTFSIFPTAWFRQAPGKEREFVAGIRWNGSTRDYTEYADFVKGRFTISRDNAKNMVYLQMISLKPEDTALYYCAASDGVIDGTNANAYRYWGQGTQVTVSS
B7: psNb 1-23 (VHH)
VHH: QVQLVESGGGLVQAGGSLRLSCAASGRTDSISDMGWFRQAPGKEREFVAVVGWSGGGTDYAHSVKGRFTISRDNAKNTVYLQMNSLKPEDTAVYYCAVGSLRVGSFSVEYWGQGTQVTVSS
B8: psNb 2-65 (VHH)
VHH: HVQLVESGGGLVQAGGSLRLSCAASGTISTLNAMGWYRQAPGKQRELLASISNLGTTYHADSVAGRFTISRGSAKNTVNLQMNSLKPDDTAVYYCNTRVLEGGTQIRDYWGQGTQVTVSS
B9: psNb 1-8 (VHH)
VHH: QVQLVESGGGLVQTGGSLRLSCAASGRTFSNYVMGWFRQAPGKEREFVSSIEWNSENTFYANSVKGRFTISRDNAKNTVYLQMNSLKAEDTAVYYCAADRGSSYYYTRASEYTYWGQGTQVTVSS

The target in the test is SARS-CoV-2 spike HexaPro (S) (SARS-CoV-2 (Wuhan-Hu-1), UniProt P0DTC2, stabilised). Briefly: cryo-EM structure.
For the molecule B1, the binding result was “binds”.
Under B2 stands “binds”.
Consider B3, for which the binding result is “binds”.
Turning to B4, the binding result is “binds”.
Turning to B5, the binding result is “binds”.
Under B6 stands “binds”; under B7, “binds”.
Under B8 stands “binds”.
The result for B9 reads “binds”.
